# From publication PMC7794309
# Settings: glycan lost
Substance,"other: support of viral entry, other: percent increase over WT",other: viral replication
ACE2: N53Q,no change,
ACE2: N90Q,60%,increases
ACE2: N103Q,no change,
ACE2: N322Q,no change,
ACE2: N432Q,no change,
ACE2: N546Q,68%,no change
ACE2: N690Q,no change,
